Source: paper PMC6262395, “A Rhodococcal Transcriptional Regulatory Mechanism Detects the Common Lactone Ring of AHL Quorum-Sensing Signals and Triggers the Quorum-Quenching Response” (Frontiers in Microbiology, 2018)

Tests used:
QsdR = biological target: T1, QsdR (Rhodococcus erythropolis, UniProt A0A0C2W9F0); experiment: EMSA, release of QsdR from biotin-labelled qsdR-qsdA intergenic DNA; conditions: ligand/QsdR molecule ratio 0.1 to 100; 2 μg His-tagged QsdR, 0.4 ng DNA; effector that relieves DNA binding
T1 construct: gene I3517_23075; full-length qsdR ORF in pET19, His-tagged (tag kept), expressed in E. coli BL21(DE3), Ni-NTA; 186 residues, asymmetric dimer
T1 sequence (A0A0C2W9F0 1-186): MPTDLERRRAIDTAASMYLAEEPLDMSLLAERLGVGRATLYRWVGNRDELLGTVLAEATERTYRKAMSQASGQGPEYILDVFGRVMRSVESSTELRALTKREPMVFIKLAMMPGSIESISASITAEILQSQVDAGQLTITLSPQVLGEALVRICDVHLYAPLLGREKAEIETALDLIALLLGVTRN

[1] = biological target: T2, QsdR (TetR-family repressor) (Rhodococcus erythropolis R138) (UniProt A0A0C2W9F0); experiment: EMSA; conditions: LightShift Chemiluminescent EMSA Kit (Thermo Scientific) as per manufacturer, 20 ul reaction; buffer, salt, pH and temperature not stated
T2 sequence: T1 sequence (A0A0C2W9F0 1-186)

[2] = biological target: T2, QsdR (TetR-family repressor) (Rhodococcus erythropolis R138); experiment: competition; conditions: LightShift Chemiluminescent EMSA Kit (Thermo Scientific) as per manufacturer, 20 ul reaction; buffer, salt, pH and temperature not stated

N[C@H]1CCOC1=O [HSL, homoserine lactone]
EMSA, release of QsdR from biotin-labelled qsdR-qsdA intergenic DNA (QsdR): Addition of increased amounts of HSL induced a proportional increase in free DNA

CATTCCTCAAGTGCGCCATCGAAGAACCTGGTCTGACTCCCGGTGTCGAGCGTGTGATGCGAGCGGTCGGTCAGGCGCAGGTCGAAACCGGGGTACCGATCACGGTTCACACGAACCCGCACACGGAATCGGGCCTCGTTGCGCAGAAGGTTCTGGCCGAGGAAGGTGCAGATCTGA (double strand) [qsdA internal fragment (negative control)]
binding [1]: no binding

GGTAGGCATCGGGACATTCTCTCCGGTTGTCCGGTACTGCACAATTTCGGCGGTCGAACAGAGGTGGGCTTCGGGTGGCTCGAGCCTATTGACGAACCAAGCGACGTGAGACACACTAGCTCATTGTCTCATGTTAGTGATGGCGATCACAGTCAGGGGTTCGATCGATGAG (double strand)
binding [1]: binds

GGTAGGCATCGGGACATTCTCTCCGGTTGTCCGGTACTGCACAATTTCGGCGGTCGAACAGAGGTGGGCTTCGGGTGGCTCGAGCCTATTGACGAACCAAGCGACGTGAGACACACTAGCTCATTGTCTCATGTTAGTGATGGCGATCACAGTCAGGGGTTCGATCGATGAG (double strand) [unlabeled qsdR-qsdA intergenic competitor]
binding [2]: binds
